B1: SURP and G-patch domain-containing protein 1 (Homo sapiens), Q8IWZ8 (parent)
chain: MSLKMDNRDVAGKANRWFGVAPPKSGKMNMNILHQEELIAQKKREIEAKMEQKAKQNQVASPQPPHPGEITNAHNSSCISNKFANDGSFLQQFLKLQKAQTSTDAPTSAPSAPPSTPTPSAGKRSLLISRRTGLGLASLPGPVKSYSHAKQLPVAHRPSVFQSPDEDEEEDYEQWLEIKVSPPEGAETRKVIEKLARFVAEGGPELEKVAMEDYKDNPAFAFLHDKNSREFLYYRKKVAEIRKEAQKSQAASQKVSPPEDEEVKNLAEKLARFIADGGPEVETIALQNNRENQAFSFLYEPNSQGYKYYRQKLEEFRKAKASSTGSFTAPDPGLKRKSPPEALSGSLPPATTCPASSTPAPTIIPAPAAPGKPASAATVKRKRKSRWGPEEDKVELPPAELVQRDVDASPSPLSVQDLKGLGYEKGKPVGLVGVTELSDAQKKQLKEQQEMQQMYDMIMQHKRAMQDMQLLWEKAVQQHQHGYDSDEEVDSELGTWEHQLRRMEMDKTREWAEQLTKMGRGKHFIGDFLPPDELEKFMETFKALKEGREPDYSEYKEFKLTVENIGYQMLMKMGWKEGEGLGSEGQGIKNPVNKGTTTVDGAGFGIDRPAELSKEDDEYEAFRKRMMLAYRFRPNPLNNPRRPYY
B2: Splicing factor 3B subunit 1 (Homo sapiens), O75533 (parent)
chain: MAKIAKTHEDIEAQIREIQGKKAALDEAQGVGLDSTGYYDQEIYGGSDSRFAGYVTSIAATELEDDDDDYSSSTSLLGQKKPGYHAPVALLNDIPQSTEQYDPFAEHRPPKIADREDEYKKHRRTMIISPERLDPFADGGKTPDPKMNARTYMDVMREQHLTKEEREIRQQLAEKAKAGELKVVNGAAASQPPSKRKRRWDQTADQTPGATPKKLSSWDQAETPGHTPSLRWDETPGRAKGSETPGATPGSKIWDPTPSHTPAGAATPGRGDTPGHATPGHGGATSSARKNRWDETPKTERDTPGHGSGWAETPRTDRGGDSIGETPTPGASKRKSRWDETPASQMGGSTPVLTPGKTPIGTPAMNMATPTPGHIMSMTPEQLQAWRWEREIDERNRPLSDEELDAMFPEGYKVLPPPAGYVPIRTPARKLTATPTPLGGMTGFHMQTEDRTMKSVNDQPSGNLPFLKPDDIQYFDKLLVDVDESTLSPEEQKERKIMKLLLKIKNGTPPMRKAALRQITDKAREFGAGPLFNQILPLLMSPTLEDQERHLLVKVIDRILYKLDDLVRPYVHKILVVIEPLLIDEDYYARVEGREIISNLAKAAGLATMISTMRPDIDNMDEYVRNTTARAFAVVASALGIPSLLPFLKAVCKSKKSWQARHTGIKIVQQIAILMGCAILPHLRSLVEIIEHGLVDEQQKVRTISALAIAALAEAATPYGIESFDSVLKPLWKGIRQHRGKGLAAFLKAIGYLIPLMDAEYANYYTREVMLILIREFQSPDEEMKKIVLKVVKQCCGTDGVEANYIKTEILPPFFKHFWQHRMALDRRNYRQLVDTTVELANKVGAAEIISRIVDDLKDEAEQYRKMVMETIEKIMGNLGAADIDHKLEEQLIDGILYAFQEQTTEDSVMLNGFGTVVNALGKRVKPYLPQICGTVLWRLNNKSAKVRQQAADLISRTAVVMKTCQEEKLMGHLGVVLYEYLGEEYPEVLGSILGALKAIVNVIGMHKMTPPIKDLLPRLTPILKNRHEKVQENCIDLVGRIADRGAEYVSAREWMRICFELLELLKAHKKAIRRATVNTFGYIAKAIGPHDVLATLLNNLKVQERQNRVCTTVAIAIVAETCSPFTVLPALMNEYRVPELNVQNGVLKSLSFLFEYIGEMGKDYIYAVTPLLEDALMDRDLVHRQTASAVVQHMSLGVYGFGCEDSLNHLLNYVWPNVFETSPHVIQAVMGALEGLRVAIGPCRMLQYCLQGLFHPARKVRDVYWKIYNSIYIGSQDALIAHYPRIYNDDKNTYIRYELDYIL
partner: B1 chain

Variants of: B1
Settings: with U2AF2, P26368
U2AF2, P26368, sequence (P26368 whole entry): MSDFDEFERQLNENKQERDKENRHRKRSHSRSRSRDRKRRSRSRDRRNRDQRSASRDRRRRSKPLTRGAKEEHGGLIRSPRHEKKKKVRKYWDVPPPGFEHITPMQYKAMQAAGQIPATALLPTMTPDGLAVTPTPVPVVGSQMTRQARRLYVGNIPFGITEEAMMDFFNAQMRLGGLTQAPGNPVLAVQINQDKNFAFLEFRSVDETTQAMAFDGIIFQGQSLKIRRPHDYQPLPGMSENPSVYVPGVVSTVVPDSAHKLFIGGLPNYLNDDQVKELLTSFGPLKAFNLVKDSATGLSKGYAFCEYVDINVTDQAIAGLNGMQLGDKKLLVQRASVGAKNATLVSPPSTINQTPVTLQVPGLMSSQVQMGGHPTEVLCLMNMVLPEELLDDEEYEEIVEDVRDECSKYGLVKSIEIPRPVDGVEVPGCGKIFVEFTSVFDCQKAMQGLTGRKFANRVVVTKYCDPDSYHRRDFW

Row | Variant | effect of a mutation on the interaction
1 | W387A | disrupting interaction strength

Variants of: B2
Settings: with sugp1_human SUGP1, Q8IWZ8

Row | Variant | effect of a mutation on the interaction
2 | K700E | decreasing interaction strength

Variants of: B2
Settings: with sugp1_human SUGP1, Q8IWZ8
Remark: another data set of the same source

Row | Variant | effect of a mutation on the interaction
3 | K700E | disrupting interaction strength
4 | R625C | disrupting interaction strength
5 | H662Q | disrupting interaction strength
6 | K666N | decreasing interaction strength
7 | E622D | disrupting interaction strength
